Data: the nanobody polyreactivity screen of Harvey et al. (2022)

Experiment: yeast display, Sf9 membrane polyspecificity reagent, FACS + sequencing; frameworks hold sequencing errors
How it was run: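 A nanobody's polyreactivity label depends on the gate it was sorted from. Yeast display cells were stained with 10% biotinylated, detergent-solubilized Sf9 membrane reagent for 1 hour at 4 °C, enriched on streptavidin microbeads and sorted by FACS. The low and high (top ~1%) gates were set on anti-HA fluorescence for expression and streptavidin fluorescence for reagent binding.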

| Sequence | polyreactivity (PSR sort gate) |
| --- | --- |
| QVQLVESGGGLVQAGGSLRLSCAASGFTFYRNAMGWYRQAPGKERELVAAITWSGTSTYYADSVKGRFTISRDNAKNTVYLQMNSPKPEDTAVYYCNTVGYRGRSNSRFYYWGQGTQVTVSS | high polyreactivity |
| QVQLVESGGGLVQAGGSLRLSCAASGSTFGSYAMGWYRQAPGKERELVAAISGGGSTYYADSVKGRFTISRDNAKNTVYLQMNSLKPEDTAVYYCNAYWKYWRTNGPGTKYNYWGQGTQVTVSS | high polyreactivity |
| QVQLVESGGGLVQAGGSLRLSCAASGSTFERYAMGWYRQAPGKEREFVATINWGGGSTYYADSVKGRFTISRDNAKNTVYLQMNSLKPEDTAVYYCNAYVLYQSWRFSYDCWGQGTQVTVSS | low polyreactivity |
| QVQHVESGGGLLQAGGSLRLSCAASGSIFYVYAMGWYRQAPGKERELVASISCGDSSTYYADSVKGRFTISRDNAKNTVYLQMNILIPEDTAVYYCAADDYRQYALYDYWGQGTHVTVSS | low polyreactivity |
| QVQLVESGGGLVQAGGSLRLSCAASGSIFNGNDMGWYRQAPGKERELVASITSNGGRTYYADSVKGRVTISRDNAKNTVYLQMNSLKPEDTAVYYCAAGYYILYIWKFDYWGQGTQVTVSS | high polyreactivity |
| QVQLVESGGGLVQAGGSLRLSCASSGITFRYYAMGWYRQAPGKERELVAAITWSGGSTYYADSVKGRFTISRDNAKNTVYLQMNSLKPEDTAVYYCAADAYVLFYGDWYEFDYWGQGTQVTVSS | high polyreactivity |
| QVQLVESVGGLVQAGGSLRLICAASGYTFSRNAMGWYRPAPGKERELVAVISSGGSTYYADSVKGRFTISRDNAKNTVYLQMNSLKPEDTAVYYCNTGVYRYGYWYDYWGQGTQVTVSS | high polyreactivity |
| QVQIVESGGGLVQAGGSLRLSCAASGIIFVRYDIGWYRPAPGKERELVAAISWSGGRTYYADSVKGRFTISRDNAKNTVYLQMNSLKPEDTEVYYCNAKGSYWWYQKDYWGQGTQVTVSS | high polyreactivity |
| QVQLVESGGGLVQAGGSLRLSCAASGFTLDWYAMGWYRQAPGKERELVAAIWSAGTTYYADSVKGRFTISRDNAKNTVYLQMNSLKPEDTAVYYCATVSDYDFGLYDYWGQGTQVTVSS | low polyreactivity |
| QVQLVESGGGLVQAGGSLRLSCAASGFIFPYFAMGWYRQAPGKERELVAAISGSGGSTYYADSVKGRFTISRDNAKNTVYLQMNSLKPEDTAVYYCAASARRLNMGYWGQGTQVTVSS | high polyreactivity |
| QVQLVESGGGLVQAGGSLRLSCAASGRIFDRNAMGWYRQAPGKERELVARIDPGDDTNYADSVKGRFTISRDNAKNTVYLQMNSLKAEDTAVYYCATDPDYVLYRTAYYEYDYWGQGTQVTVSS | low polyreactivity |
| QFQLVESGGGLVQAGGSLRLSCAASGSTFPRYAMGWYRPAPGKERELVAAISRSGTSTYYADSVKGRFTISRDNAKNTVYLQMNSLKPEDTAVYYCAAEYHPRVLYPNWYDYWGQGTQVTVSS | low polyreactivity |
| QVQLVESGGGLVQAGGSLRLSCAASGFTFPYNAMGWYRQAPGKERELVAAISSTGGITYYADSVKGRFTISRDNAKNTVYLQLNSLKPEDTAVYYCGWYDYWGLGTQVTVSS | low polyreactivity |
| QVQLQESGGGLVQVGGSLRLSCAASGTIFIYGFLGWNRQAPGKERELVASINLGGITNYADSVKGRFTISRDNATNTVYLQMISLKPEDTAVYYCAAYVVTGQNYGYWGQGTQVTVSS | low polyreactivity |
| QVQLVESGGGLVQAGGSLRLSCAASGRTFTIYARGWYRQAPGKERELVAAIRRTGVSTYYADSVKGRFTISRDYAKNTVYLQMNSLKPEDTAVYYCAARQYSYLRLWWYEYWGQGTQVTVSS | high polyreactivity |
| QVQLVESGGGLVQAGGSLRLSCAASGRILYAYTMGWYRQAPGKERELVATISRSGGNTYYADSVKGRFTISRDNAKNTVYLQMNSLKPEDTAVYYCAVGKYGTQRVKLYQYRYNYWGQGTQVTVSS | high polyreactivity |
| QVQLVESGGGLVQAGGSLRLICAASGSIFYVYAMGWYRQSPGKERELDAAINTSGGSTFYADSVKGRFTISRDNAKNTVYLQMNSLKPEDTAVYYCAAERYRYRSTDTMGYWGQGTQVTVSS | low polyreactivity |
| QVQLVESGGGLVQAGGSLRLTCAASGRTFAWYAMGWYRQAPGKERELVAAISSGGSTYYADSVKGRFTISRDNAKNTVYLQMDSLKPEDTAVYYCAAEWHYIYAYDYWGQGTQVTVSS | low polyreactivity |
| QVQLVESGGGLVQAGGSLRLSCAASGRIFVSNAMGWYRQAHGKERELVAGITWTSGSTYYADSVKGRFTISRDNAKNTVYLLMNSLKPEDTAVYYCAAEYWYGNAFDYWGEGTQVTVSS | low polyreactivity |
| QVHHEESGGGLVQAGGSLRLSCAASGGIFYLNDMGWYRQAPGKERELVAAITGTGGNTYYADSVKGRFTISRDNAKNTVYLQMNSLKPEDTAVYYCAAQHYWVTSYLSSYDYWGQGTQVTVSS | low polyreactivity |
| QVQLVESGVGLVQAGGSLRLSCADSGFTFRRYVMGWYRQAPGKERELVAGISASGDSTYYADSVKGRFTISRDYAKNTFYLQMNSLKPEDTAVYYCATVARYRYLESYYWGQGTQVTVSS | high polyreactivity |
| QVQLVESGGGLVQAGGSLRLSCAASGSTFLDNAMGWYRQAPGKERELVASITSSGGNTYYADSVKGRFTISRDNAKNTVYLQLNSLTPEDTAVYYCAADAASYWRYNSANYDYDYWGQGTQVTVSS | low polyreactivity |

| Sequence | polyreactivity (PSR sort gate) |
| --- | --- |
| QVQLVETGGGLVQAGVSLRLSSAASGLTYTQYALGWYRQAPGKERELVAAITSGGRRYYADSVKGRFTISRDNAKNTVYLQMNSLKPEDTAVYYCAVRGWCSARGMDYWGQGTQVTVSS | high polyreactivity |
| QVQLVESGGGLVQAGGSLRLSCAASGRTFLPYAMGWYRQAPGKERELVAAITYSGGRTYYADSVKGRFTISRDNAKNTVYLQMNSLKPEDTAVYYCAASLWFGGGYWGLGTQVTVSS | high polyreactivity |
| QVQLVESGGGLVQAGGSLRLSCAASGFIFYKYAMGWYRQAPGKERELVAAITWRGGRTNYADSVKGRFTISRDNAKNTVYLQMNSLKPEDTAVYYCAADPWYSSYYYSYEYWGQGTQVTVSS | high polyreactivity |
| QFQLVESVGGLVQAGGSLRLSCAASGRTFVDYDMGCYRPAPGKERELVAAIRRGGSTTYEDSVKGRFTISRDNAKNTVYLQMNSLKPEDTAVYYCATDNTYGSDYWGQGTQVTVSW | high polyreactivity |
| QVQLVESRGGLVQAGGSLRLSCAASGSTCFTNDMGWYRQAPGTERELVASISPSTGSTYYADSVKGRVTISRDNAKNTVSLQMNSLKPDDTAVYYCAADEWYYSYNDGNLYDYWGQGTQVTVSS | low polyreactivity |
| QVQLVESGGCLVQAGGSLRLSGAASGSISYRNSMGWYRQAPGKERELVAAISSRGGSTFYADSEKGRFTISRDNAKNTVYLQMNSLKPEDTAVYYCAARGYHRFKNVNYWGQGTQVTVSS | high polyreactivity |
| QVQLVESGGGLVQAGGSLRLSCAASGSTFWYYAMGWYRQAPGKERELVATITTSGGNTYYADSVKGRFTISRDNAKNTVYLQMNSLKPEDTAVYYCAARRYRASSRGYGYWGQGTQVTVSS | high polyreactivity |
| QVQLVESGGGLDQAGGSLRLSCAASGFIYPVYTMGGYRQAPGKERELVAAITQIGGSTHYADTVKGRFTISRDNAKNTVYLQMNSLKPDETAVYYCNAVPSYGTEYDYWGHGTQVTVSS | low polyreactivity |
| QVQLVESGGGLVQAGGSLRLSCAASGLIFGRYAMGWYRQAPGKERELVAAISSSGVRTYYADSVKGRFTISRDNAKNTVYLQMNSLNPEDTAVYYCAAYDWYISEDYRYYYFWEYDYWGQGTQVTVSS | high polyreactivity |
| QVQLVESGGGLVQAGGSLRLSCAASGSTFVVYAMGWYRQAPGKERELVAAITTSDDSTYYADSVKGRFTISRDNAKNTVYLQMNSLKPEDTAVYYCAATLRWQDGYWGQGTQVTVSS | low polyreactivity |
| QVQLVESGGGLVQAGGSLRLSCAASGSTLGGNAMGWYRQEPGKERELGAAITSSAGSTYYADSVKGRYTISRDNAKNTVYLQMNSLQPEDTAVYYCAADYSRDEYDYWGQGTEVTVSS | low polyreactivity |
| QVQLVESGGGLVQAGGSLRLSCADSGFTFTYYAMGWYRQAPGKERELVAGITRSGGSTYYADSVKGRFTISRDTAKNTVYLQMNSLKPEDTAVYYCAVKFVRYRQGIVLYDYWGQGTQVTVSS | high polyreactivity |
| QVQLGESGGGLVQAGGSLRLSCAASGRTLWFYAMGWYRQAPGKERELVAAISSGGSTNYGDSVKGRFTISRDNAKNTVYLQMNSLKPEDTAVYYCAKVGNIPYGTRYDSNRYDYWGQGTQVTVSS | low polyreactivity |
| QVQLVESGGGLVQAGGSLSLSCAASGSTFSLNTKGWYRQAPRKERELVAAITSGGSTNYADSVKGRFTISRDNAKNTVYLQMNSLKPEDTAVYYCAATPGRGGGYNYWGQGSQVTVSS | low polyreactivity |
| QVQLVESGGGLVQAGGSLRLSCAASGSIFYGYAMGWYRQAPGKEREFVAGIDSSGGSTSYADSVKGRFTISRDNAKNTVYLQMNSLKPEDTAVYYCNAPDPSDQHGDYWGQGTQVTVSS | low polyreactivity |
| QVQLVDSGGGLVQAGGSLRLSCAASGRTFYFNAMGWYRQAPGKERELVAAITSSDSTYYADSVKGRFTISRDNAKNTVYLQMISLKPEDTAVYYCNADYFYWREMDYWGQGTQVTVSS | low polyreactivity |
| QVQLVESGGVLVQAGGSLRLSCAASGSIFSYNVMGWYRQAQGKEREFVAAITRSGGSTYYADSVKGRFTISRDNAKNTVYLQMNSLKPEDTAVYYCATAYYYTPFREYYYWGQGTQVTVSS | low polyreactivity |
| QVQLVESGGGLVQAGGSLRLSCAASGSIFGFYAMGWYRQAPGKERELVAGISYGDSSTYYADSVKGRFTISRDNAKNTVYLQMNSLKPEDTAVYYCAAGHRQKYNWGRYDYWGQGTQVTVSS | low polyreactivity |
| QVQLVESGGGLVQAGGSLRLSCAASGSTFGYNAMGWYRPAPGKERELVARITSSGGSTYYADSVKGRFTISRDNAKISVYLQMNSLKPEDTAVYYCAAGYPYRAVYRYYYWGQGTQVTVSS | high polyreactivity |
| QVQLVESGGGLVQAGGSLRLSCAASGGIFNVNAMGWYRQAPWKERELVAAIDWSSSSTDYADSVKGRFTISRDNAKNTVYLQMNSLKPEDTAVYYCAKLAGYSPTFEYWGQGTQVTVSS | low polyreactivity |
| QVQLVESGGGLVQAGGSLRLSCAASGSIFCYALGWNRQAPGKKRELVAAITGRCTSTYADSVKGRFTISLDNAKNTVYLQTNSLKPEDTAVYYCGPVGWFAEFLFSDIYGYYWGQGTQVTVSS | low polyreactivity |
